# What was measured:
# Assay type in all cases: in vivo
# [1] = system: Sprague-Dawley rats; experiment: Example 34: EPO mRNA in buffer IM in rats, serum EPO (Table 59); details: 13 hours post injection
# [2] = system: non-human primates (cynomolgus monkey); experiment: Example 22: NHP cytokine interferon-alpha (Table 47)
# Protocol: LNP formulations, shown in Table 33 (above), were administered to non-human primates (NHP) (cynomolgus monkey) (n=2) as intravenous injection (IV). The NHP were administered a single modified mRNA IV dose of 0.5 mg/kg, 0.05 mg/kg or 0.005 mg/kg of G-CSF or EPO in a dose volume of 0.5 mL/kg. The NHPs were bled before dosing with the modified mRNA LNP formulations to determine protein expression in the serum and a baseline complete blood count. After administration with the G-CSF modified mRNA formulation the NHP were bled at 8, 24, 48 and 72 hours to determined protein expression. After administration with the EPO modified mRNA formulation the NHP were bled at 8, 24, 48, 72 hours and 7 days to determined protein expression.
# [3] = system: non-human primates (cynomolgus monkey); experiment: Example 22: NHP serum chemistry ALT and AST (Tables 45, 46)
# [4] = system: rats; experiment: Example 17: LNP IV, IM, SC in rats, serum EPO/G-CSF ELISA (Table 34); details: for EPO / G-CSF Serum Concentration: LNP 0.05 mg/kg
# Protocol: (§1) Formulations, listed in Table 33, were characterized by particle size, zeta potential, and encapsulation.
# LNP formulations, shown in Table 33 (above), were administered to rats (n=5) intravenously (IV), intramuscularly (IM) or subcutaneously (SC) at a single modified mRNA dose of 0.05 mg/kg. A control group of rats (n=4) was untreated. […] The rats administered EPO modified mRNA intravenously were also bled at 7 days.
# [5] = system: mice; experiment: Example 19A: LNP IV in mice, serum EPO/G-CSF ELISA (Table 36)
# Protocol: as §1
# LNP formulations, shown in Table 33 (above), were administered to mice (n=4) intravenously (IV) at a single modified mRNA dose 0.05 mg/kg or 0.005 mg/kg. There was also 3 control groups of mice (n=4) that were untreated. The mice were bled at 2 hours, 8 hours, 24 hours, 48 hours and 72 hours after they were administered with G-CSF or EPO modified mRNA formulations to determine the protein expression. Protein expression of G-CSF and EPO were determined using ELISA.
# [6] = 0.005 mg/kg, 4 days, Female NHP
# [7] = 0.005 mg/kg, Pre-dose, Female NHP
# [8] = 0.005 mg/kg, Pre-dose, Male NHP
# [9] = 0.05 mg/kg, Pre-dose, Female NHP
# [10] = 0.5 mg/kg, Pre-dose, Female NHP
# [11] = 0.005 mg/kg, 2 days, Female NHP
# [12] = 0.005 mg/kg, 7 days, Female NHP
# [13] = 0.005 mg/kg, 14 days, Female NHP
# [14] = 0.05 mg/kg, 14 days, Female NHP
molecule,measurement,setting,value
"EPO: modified mRNA encoding human erythropoietin, SEQ ID NO: 7, Cap1, fully modified with 5-methylcytosine and pseudouridine; LNP NPA-060-1 in Examples 17-22 (nucleic acid, Cap1, 5-methylcytosine, pseudouridine) GGGAAAUAAGAGAGAAAAGAAGAGUAAGAAGAAAUAUAAGAGCCACCAUGGGAGUGCACGAGUGUCCCGCGUGGUUGUGGUUGCUGCUGUCGCUCUUGAGCCUCCCACUGGGACUGCCUGUGCUGGGGGCACCACCCAGAUUGAUCUGCGACUCACGGGUACUUGAGAGGUACCUUCUUGAAGCCAAAGAAGCCGAAAACAUCACAACCGGAUGCGCCGAGCACUGCUCCCUCAAUGAGAACAUUACUGUACCGGAUACAAAGGUCAAUUUCUAUGCAUGGAAGAGAAUGGAAGUAGGACAGCAGGCCGUCGAAGUGUGGCAGGGGCUCGCGCUUUUGUCGGAGGCGGUGUUGCGGGGUCAGGCCCUCCUCGUCAACUCAUCACAGCCGUGGGAGCCCCUCCAACUUCAUGUCGAUAAAGCGGUGUCGGGGCUCCGCAGCUUGACGACGUUGCUUCGGGCUCUGGGCGCACAAAAGGAGGCUAUUUCGCCGCCUGACGCGGCCUCCGCGGCACCCCUCCGAACGAUCACCGCGGACACGUUUAGGAAGCUUUUUAGAGUGUACAGCAAUUUCCUCCGCGGAAAGCUGAAAUUGUAUACUGGUGAAGCGUGUAGGACAGGGGAUCGCUGAUAAGCUGCCUUCUGCGGGGCUUGCCUUCUGGCCAUGCCCUUCUUCUCUCCCUUGCACCUGUACCUCUUGGUCUUUGAAUAAAGCCUGAGUAGGAAG","human EPO in serum, Avg.",[1]; dose 1 μg,28.7 pg/mL
same,"human EPO in serum, Geometric-mean",[1]; dose 1 μg,25.4 pg/mL
same,"human EPO in serum, Avg.",[1]; dose 10 μg,46.3 pg/mL
same,"human EPO in serum, Geometric-mean",[1]; dose 10 μg,31.2 pg/mL
same,"human EPO in serum, Avg.",[1]; dose 50 μg,101.5 pg/mL
same,"human EPO in serum, Geometric-mean",[1]; dose 50 μg,85.4 pg/mL
same,"human EPO in serum, Avg.",[1]; dose 100 μg,79.4 pg/mL
same,"human EPO in serum, Geometric-mean",[1]; dose 100 μg,66.9 pg/mL
same,"human EPO in serum, Avg.",[1]; dose 150 μg,67.7 pg/mL
same,"human EPO in serum, Geometric-mean",[1]; dose 150 μg,67.1 pg/mL
same,IFN-alpha,[2]; [6],0 pg/mL
same,IFN-alpha,"[2]; 0.005 mg/kg, 4 days, Male NHP",0 pg/mL
same,IFN-alpha,"[2]; 0.005 mg/kg, Day 1 + 8 hr, Female NHP",0 pg/mL
same,IFN-alpha,"[2]; 0.005 mg/kg, Day 1 + 8 hr, Male NHP",0 pg/mL
same,IFN-alpha,[2]; [7],0 pg/mL
same,IFN-alpha,[2]; [8],0 pg/mL
same,IFN-alpha,"[2]; 0.05 mg/kg, 4 days, Female NHP",0 pg/mL
same,IFN-alpha,"[2]; 0.05 mg/kg, 4 days, Male NHP",0 pg/mL
same,IFN-alpha,"[2]; 0.05 mg/kg, Day 1 + 8 hr, Female NHP",0 pg/mL
same,IFN-alpha,"[2]; 0.05 mg/kg, Day 1 + 8 hr, Male NHP",0 pg/mL
same,IFN-alpha,[2]; [9],0 pg/mL
same,IFN-alpha,"[2]; 0.05 mg/kg, Pre-dose, Male NHP",0 pg/mL
same,IFN-alpha,"[2]; 0.5 mg/kg, 4 days, Female NHP",0 pg/mL
same,IFN-alpha,"[2]; 0.5 mg/kg, 4 days, Male NHP",0 pg/mL
same,IFN-alpha,"[2]; 0.5 mg/kg, Day 1 + 8 hr, Female NHP",217.5 pg/mL
same,IFN-alpha,"[2]; 0.5 mg/kg, Day 1 + 8 hr, Male NHP",16.79 pg/mL
same,IFN-alpha,[2]; [10],0 pg/mL
same,IFN-alpha,"[2]; 0.5 mg/kg, Pre-dose, Male NHP",0 pg/mL
same,ALT,[3]; [11],48 U/L
same,AST,[3]; [11],25 U/L
same,ALT,"[3]; 0.005 mg/kg, 2 days, Male NHP",62 U/L
same,AST,"[3]; 0.005 mg/kg, 2 days, Male NHP",29 U/L
same,ALT,[3]; [6],50 U/L
same,AST,[3]; [6],55 U/L
same,ALT,"[3]; 0.005 mg/kg, 4 days, Male NHP",48 U/L
same,AST,"[3]; 0.005 mg/kg, 4 days, Male NHP",43 U/L
same,ALT,[3]; [12],48 U/L
same,AST,[3]; [12],31 U/L
same,ALT,"[3]; 0.005 mg/kg, 7 days, Male NHP",21 U/L
same,AST,"[3]; 0.005 mg/kg, 7 days, Male NHP",55 U/L
same,ALT,[3]; [13],51 U/L
same,AST,[3]; [13],54 U/L
same,ALT,"[3]; 0.005 mg/kg, 14 days, Male NHP",43 U/L
same,AST,"[3]; 0.005 mg/kg, 14 days, Male NHP",35 U/L
same,ALT,[3]; [7],45 U/L
same,AST,[3]; [7],40 U/L
same,ALT,[3]; [8],45 U/L
same,AST,[3]; [8],39 U/L
same,ALT,"[3]; 0.05 mg/kg, 2 days, Female NHP",254 U/L
same,AST,"[3]; 0.05 mg/kg, 2 days, Female NHP",80 U/L
same,ALT,"[3]; 0.05 mg/kg, 2 days, Male NHP",95 U/L
same,AST,"[3]; 0.05 mg/kg, 2 days, Male NHP",61 U/L
same,ALT,"[3]; 0.05 mg/kg, 4 days, Female NHP",200 U/L
same,AST,"[3]; 0.05 mg/kg, 4 days, Female NHP",94 U/L
same,ALT,"[3]; 0.05 mg/kg, 4 days, Male NHP",70 U/L
same,AST,"[3]; 0.05 mg/kg, 4 days, Male NHP",48 U/L
same,ALT,"[3]; 0.05 mg/kg, 7 days, Female NHP",187 U/L
same,AST,"[3]; 0.05 mg/kg, 7 days, Female NHP",78 U/L
same,ALT,"[3]; 0.05 mg/kg, 7 days, Male NHP",64 U/L
same,AST,"[3]; 0.05 mg/kg, 7 days, Male NHP",53 U/L
same,ALT,[3]; [14],216 U/L
same,AST,[3]; [14],47 U/L
same,ALT,"[3]; 0.05 mg/kg, 14 days, Male NHP",29 U/L
same,AST,"[3]; 0.05 mg/kg, 14 days, Male NHP",32 U/L
same,ALT,[3]; [9],160 U/L
same,AST,[3]; [9],58 U/L
same,ALT,"[3]; 0.05 mg/kg, Pre-dose, Male NHP",56 U/L
same,AST,"[3]; 0.05 mg/kg, Pre-dose, Male NHP",74 U/L
same,ALT,"[3]; 0.5 mg/kg, 2 days, Female NHP",77 U/L
same,AST,"[3]; 0.5 mg/kg, 2 days, Female NHP",141 U/L
same,ALT,"[3]; 0.5 mg/kg, 2 days, Male NHP",98 U/L
same,AST,"[3]; 0.5 mg/kg, 2 days, Male NHP",125 U/L
same,ALT,"[3]; 0.5 mg/kg, 4 days, Female NHP",87 U/L
same,AST,"[3]; 0.5 mg/kg, 4 days, Female NHP",60 U/L
same,ALT,"[3]; 0.5 mg/kg, 4 days, Male NHP",94 U/L
same,AST,"[3]; 0.5 mg/kg, 4 days, Male NHP",71 U/L
same,ALT,"[3]; 0.5 mg/kg, 7 days, Female NHP",59 U/L
same,AST,"[3]; 0.5 mg/kg, 7 days, Female NHP",47 U/L
same,ALT,"[3]; 0.5 mg/kg, 7 days, Male NHP",60 U/L
same,AST,"[3]; 0.5 mg/kg, 7 days, Male NHP",56 U/L
same,ALT,"[3]; 0.5 mg/kg, 14 days, Female NHP",44 U/L
same,AST,"[3]; 0.5 mg/kg, 14 days, Female NHP",44 U/L
same,ALT,"[3]; 0.5 mg/kg, 14 days, Male NHP",88 U/L
same,AST,"[3]; 0.5 mg/kg, 14 days, Male NHP",82 U/L
same,ALT,[3]; [10],31 U/L
same,AST,[3]; [10],20 U/L
same,ALT,"[3]; 0.5 mg/kg, Pre-dose, Male NHP",50 U/L
same,AST,"[3]; 0.5 mg/kg, Pre-dose, Male NHP",59 U/L
same,protein expression detectable out to,[4]; IV,5 days
same,EPO / G-CSF Serum Concentration,"[4]; IM, 2 hours",1395.4 pg/mL
same,EPO / G-CSF Serum Concentration,"[4]; IM, 8 hours",8974.6 pg/mL
same,EPO / G-CSF Serum Concentration,"[4]; IM, 24 hours",4678.3 pg/mL
same,EPO / G-CSF Serum Concentration,"[4]; IV, 2 hours","36,981.0 pg/ml"
same,EPO / G-CSF Serum Concentration,"[4]; IV, 8 hours","62,053.3 pg/ml"
same,EPO / G-CSF Serum Concentration,"[4]; IV, 24 hours","42,077.0 pg/ml"
same,EPO / G-CSF Serum Concentration,"[4]; IV, 48 hours","5,561.5 pg/ml"
same,EPO / G-CSF Serum Concentration,"[4]; IV, 5 days",0.0 pg/mL
same,EPO / G-CSF Serum Concentration,"[4]; IV, 7 days",0.0 pg/mL
same,EPO / G-CSF Serum Concentration,"[4]; SC, 2 hours",386.2 pg/mL
same,EPO / G-CSF Serum Concentration,"[4]; SC, 8 hours",985.6 pg/mL
same,EPO / G-CSF Serum Concentration,"[4]; SC, 24 hours",544.2 pg/mL
same,protein expression detectable to,[4]; subcutaneous and intramuscular,at least 24 hours
same,EPO / G-CSF Serum Concentration,"[5]; 0.005 mg/kg, 2 hours",OSC
same,EPO / G-CSF Serum Concentration,"[5]; 0.005 mg/kg, 8 hours","1,632.8 pg/ml"
same,EPO / G-CSF Serum Concentration,"[5]; 0.005 mg/kg, 24 hours","1,141.0 pg/ml"
same,EPO / G-CSF Serum Concentration,"[5]; 0.005 mg/kg, 48 hours",137.4 pg/mL
same,EPO / G-CSF Serum Concentration,"[5]; 0.005 mg/kg, 72 hours",0 pg/mL
same,EPO / G-CSF Serum Concentration,"[5]; 0.05 mg/kg, 2 hours","10,027.3 pg/ml"
same,EPO / G-CSF Serum Concentration,"[5]; 0.05 mg/kg, 8 hours","56,547.2 pg/ml"
same,EPO / G-CSF Serum Concentration,"[5]; 0.05 mg/kg, 24 hours","25,027.3 pg/ml"
same,EPO / G-CSF Serum Concentration,"[5]; 0.05 mg/kg, 48 hours","1,432.3 pg/ml"
same,EPO / G-CSF Serum Concentration,"[5]; 0.05 mg/kg, 72 hours",82.2 pg/mL

# Source: US20190142971A1, “FORMULATION AND DELIVERY OF MODIFIED NUCLEOSIDE, NUCLEOTIDE, AND NUCLEIC ACID COMPOSITIONS” (ModernaTX, Inc., priority 2013, published 2019)
